Laboratory results from patent US20080280313.

Key:
[1] = system: CKI substrate DDDEESITRR (Promega)
[2] = system: CKI phosphopeptide substrate KRRRALS(p)VASLPGL (New England Biolabs)
[3] = target: partially dephosphorylated α-casein (Sigma) (UniProt P02662)
[4] = system: CKII substrate RRADDSDDDDD (Calbiochem)
[5] = system: CKII substrate RRREEETEEE (New England Biolabs)
β-casein (Sigma) = β-casein (Sigma) (UniProt P02666)
[6] = system: CaM kinase II substrate (281-291) MHKNETVECLK (Calbiochem)
[7] = system: Syntide-2 substrate PLARTLSVAGLPGKK (Calbiochem)
[8] = system: kemptide LRRASLG (Promega)

β-casein (Sigma), sequence (P02666 16-224): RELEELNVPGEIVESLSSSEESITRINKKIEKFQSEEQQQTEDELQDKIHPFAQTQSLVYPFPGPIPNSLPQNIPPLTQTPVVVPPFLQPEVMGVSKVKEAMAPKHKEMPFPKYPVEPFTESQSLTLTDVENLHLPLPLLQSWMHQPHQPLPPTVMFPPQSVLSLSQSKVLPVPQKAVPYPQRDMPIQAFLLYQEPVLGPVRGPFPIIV
partially dephosphorylated α-casein (Sigma), sequence (P02662 16-214): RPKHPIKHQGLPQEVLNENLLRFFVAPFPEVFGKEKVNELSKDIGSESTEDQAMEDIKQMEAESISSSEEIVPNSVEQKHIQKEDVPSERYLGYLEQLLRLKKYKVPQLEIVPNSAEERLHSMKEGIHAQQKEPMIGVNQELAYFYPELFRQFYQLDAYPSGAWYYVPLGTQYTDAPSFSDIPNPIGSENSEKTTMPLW

| Substance | kinase activity with peptide substrate [1] | Km(app) [2] [µM] | Vmax(app) (nmole min^-1 mg^-1) [2] | Km(app) [3] [µM] | Vmax(app) (nmole min^-1 mg^-1) [3] | kinase activity with peptide substrate [4] | kinase activity with peptide substrate [5] | Km(app) (β-casein (Sigma)) [µM] | Vmax(app) (nmole min^-1 mg^-1) (β-casein (Sigma)) | kinase activity with peptide substrate [6] | kinase activity with peptide substrate [7] | kinase activity with peptide substrate [8] |
| --- | --- | --- | --- | --- | --- | --- | --- | --- | --- | --- | --- | --- |
| FLAGTgCKIα, N-terminal FLAG epitope tagged Toxoplasma gondii casein kinase I alpha | failed to show concentration dependent kinase activity | 80 | 26 | 4 | 8 | failed to show concentration dependent kinase activity | failed to show concentration dependent kinase activity | 30 | 8 | failed to show concentration dependent kinase activity | failed to show concentration dependent kinase activity | failed to show concentration dependent kinase activity |
| native TgCKIα, partially purified from Toxoplasma gondii tachyzoites | failed to show concentration dependent kinase activity | 20 | – | 3 | – | failed to show concentration dependent kinase activity | failed to show concentration dependent kinase activity | 13 | – | failed to show concentration dependent kinase activity | failed to show concentration dependent kinase activity | failed to show concentration dependent kinase activity |
